The target of assay [1] is T1, C-terminal domain (CTD) of human PTPRG (amino acid residues 349~736 of human PTPRG) (human, UniProt P23470 349-736).
T1 construct: also called hPTPRG-CTD; human PTPRG carboxyl domain
T1 sequence: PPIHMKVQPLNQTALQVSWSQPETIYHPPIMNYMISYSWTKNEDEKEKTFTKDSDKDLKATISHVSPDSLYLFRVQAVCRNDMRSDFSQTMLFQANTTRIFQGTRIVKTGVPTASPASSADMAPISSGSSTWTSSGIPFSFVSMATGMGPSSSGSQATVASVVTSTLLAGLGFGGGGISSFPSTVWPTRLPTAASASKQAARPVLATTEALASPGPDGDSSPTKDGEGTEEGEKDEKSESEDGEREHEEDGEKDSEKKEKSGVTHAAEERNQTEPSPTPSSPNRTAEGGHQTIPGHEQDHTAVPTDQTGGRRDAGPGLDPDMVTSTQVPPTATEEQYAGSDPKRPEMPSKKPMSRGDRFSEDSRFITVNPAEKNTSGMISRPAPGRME
The assay is described as follows: ELISA, one condition per Fab and antigen; y axis 0 to 1.8 without name or unit.

In assay [2] the target is T2, mouse PTPRG ECD (amino acid residues 20-733 of mouse PTPRG) fused to hFc (mouse, UniProt Q05909 20-733).
T2 construct: Produced in-house; also called mPTPRG-ECD; Mouse PTPRG-ECD-hFc; not shown: human Fc (hFc)
T2 sequence: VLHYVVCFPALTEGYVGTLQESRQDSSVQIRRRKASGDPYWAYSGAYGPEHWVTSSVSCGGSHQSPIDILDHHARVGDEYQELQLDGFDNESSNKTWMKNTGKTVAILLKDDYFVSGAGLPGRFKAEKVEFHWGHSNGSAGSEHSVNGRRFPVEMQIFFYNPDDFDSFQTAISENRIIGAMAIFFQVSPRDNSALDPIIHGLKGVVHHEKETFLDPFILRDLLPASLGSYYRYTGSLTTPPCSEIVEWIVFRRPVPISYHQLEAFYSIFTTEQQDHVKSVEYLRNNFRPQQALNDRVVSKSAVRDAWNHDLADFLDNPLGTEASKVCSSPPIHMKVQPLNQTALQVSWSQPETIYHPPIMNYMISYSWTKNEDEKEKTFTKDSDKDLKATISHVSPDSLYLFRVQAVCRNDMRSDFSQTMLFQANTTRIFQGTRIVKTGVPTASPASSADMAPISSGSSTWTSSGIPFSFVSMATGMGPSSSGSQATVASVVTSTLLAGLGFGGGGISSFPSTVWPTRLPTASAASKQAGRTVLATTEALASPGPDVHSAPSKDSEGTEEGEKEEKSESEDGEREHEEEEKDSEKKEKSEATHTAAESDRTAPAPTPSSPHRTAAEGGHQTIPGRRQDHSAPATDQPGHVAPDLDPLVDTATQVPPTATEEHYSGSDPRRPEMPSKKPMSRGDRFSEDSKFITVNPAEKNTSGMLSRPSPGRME
The assay is described as above.

The target of assay [3] is T3, human Nectin-2 extracellular domain (amino acid residues 1-360 of human Nectin-2) fused to hFc (human, UniProt Q92692 32-360).
T3 construct: Bought; also called hNectin-2-ECD-hFc; NECTIN2-ECD-hFc; not shown: human Fc (hFc)
T3 sequence: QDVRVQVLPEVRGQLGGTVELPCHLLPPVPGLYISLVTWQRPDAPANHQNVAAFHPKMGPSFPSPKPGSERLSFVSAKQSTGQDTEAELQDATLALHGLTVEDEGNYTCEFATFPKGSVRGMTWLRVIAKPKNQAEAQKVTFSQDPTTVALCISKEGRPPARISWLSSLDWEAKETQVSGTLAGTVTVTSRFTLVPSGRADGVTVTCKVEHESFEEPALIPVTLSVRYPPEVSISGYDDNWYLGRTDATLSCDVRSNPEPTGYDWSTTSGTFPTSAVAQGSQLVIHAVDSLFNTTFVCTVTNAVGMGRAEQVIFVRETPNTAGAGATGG
The assay is described as follows: ELISA, absorbance at 405 nm, one condition per Fab and antigen. In general terms: In an ELISA, binding on a coated surface is turned into a signal by an enzyme label.

In assay [4] the target is T4, human CD105-ECD: amino acid residues Met 1-Gly 586 of human CD105 (Sino bio: Cat: 10149-H02H) (human, UniProt P17813 26-586).
T4 construct: Bought; also called hCD105-ECD-hFc; hCD105-hFc
T4 sequence: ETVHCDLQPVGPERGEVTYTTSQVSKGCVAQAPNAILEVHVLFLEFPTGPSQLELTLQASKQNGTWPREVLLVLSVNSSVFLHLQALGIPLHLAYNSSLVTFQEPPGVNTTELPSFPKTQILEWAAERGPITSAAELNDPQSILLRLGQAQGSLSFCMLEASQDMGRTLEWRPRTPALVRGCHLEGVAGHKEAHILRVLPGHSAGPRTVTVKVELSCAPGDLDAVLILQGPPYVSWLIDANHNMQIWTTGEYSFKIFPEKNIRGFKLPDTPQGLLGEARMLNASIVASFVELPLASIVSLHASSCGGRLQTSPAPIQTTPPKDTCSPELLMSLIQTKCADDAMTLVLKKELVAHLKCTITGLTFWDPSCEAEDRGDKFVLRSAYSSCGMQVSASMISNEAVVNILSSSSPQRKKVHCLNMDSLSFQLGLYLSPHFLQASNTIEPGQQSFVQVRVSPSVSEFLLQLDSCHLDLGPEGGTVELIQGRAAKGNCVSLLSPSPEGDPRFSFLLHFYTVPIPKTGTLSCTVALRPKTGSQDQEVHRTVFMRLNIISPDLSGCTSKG
Described as above.

Assay [5] concerns the target T5, human PTPRG on the cell surface (U937 cells, HEL cells) (human, UniProt P23470 20-1445).
T5 construct: Endogenous PTPRG of human AML cell lines
The assay is described as follows: flow cytometry on whole U937 cells, screen of the 28 clones (Ctrl row = 0); PTPRG is named as the antigen on U937 cells only in the later examples. In general terms: Flow cytometry measures light scatter and fluorescence of single cells or particles in a stream.

Assay [6] deals with T5, human PTPRG on the cell surface (U937 …). The assay is described as follows: flow cytometry on whole HEL cells, screen of the 28 clones (Ctrl row = 0); PTPRG is named as the antigen on HEL cells only in the later examples.
In assay [7] the target is T6, human PTPRG extracellular domain (ECD) (residues 20~736 of human PTPRG) fused to hFc (human, UniProt P23470 20-736).
T6 construct: Produced in-house by transient transfection of Expi293 cells; also called hPTPRG-ECD-hFc; hPTPRG-ECD; not shown: human Fc (hFc)
T6 sequence: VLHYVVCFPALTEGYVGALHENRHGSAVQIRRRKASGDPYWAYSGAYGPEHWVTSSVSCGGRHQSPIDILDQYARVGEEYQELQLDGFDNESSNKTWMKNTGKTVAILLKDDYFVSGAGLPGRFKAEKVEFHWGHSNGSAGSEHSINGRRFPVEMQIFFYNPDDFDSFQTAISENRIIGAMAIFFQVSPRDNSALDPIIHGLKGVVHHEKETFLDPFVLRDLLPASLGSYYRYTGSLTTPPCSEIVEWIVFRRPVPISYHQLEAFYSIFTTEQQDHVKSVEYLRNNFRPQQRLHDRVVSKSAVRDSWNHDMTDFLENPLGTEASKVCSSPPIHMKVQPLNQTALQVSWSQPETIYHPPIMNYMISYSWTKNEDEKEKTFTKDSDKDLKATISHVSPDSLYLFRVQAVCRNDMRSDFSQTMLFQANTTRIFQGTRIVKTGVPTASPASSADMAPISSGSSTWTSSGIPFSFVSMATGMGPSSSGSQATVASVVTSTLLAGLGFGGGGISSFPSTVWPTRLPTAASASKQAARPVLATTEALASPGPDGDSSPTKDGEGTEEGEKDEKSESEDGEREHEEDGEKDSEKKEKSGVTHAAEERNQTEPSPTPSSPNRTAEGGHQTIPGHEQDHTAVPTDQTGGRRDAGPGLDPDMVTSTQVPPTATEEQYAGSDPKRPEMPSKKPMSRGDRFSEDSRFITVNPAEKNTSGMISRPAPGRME
The assay is described as follows: ELISA, absorbance at 405 nm, one condition per Fab and antigen.

In assay [8] the target is T7, human Nectin-2 on the cell surface (U937 cells) (human, UniProt Q92692 32-538).
T7 construct: Endogenous Nectin-2 of U937 cells; also called PVRL2; CD112
T7 sequence: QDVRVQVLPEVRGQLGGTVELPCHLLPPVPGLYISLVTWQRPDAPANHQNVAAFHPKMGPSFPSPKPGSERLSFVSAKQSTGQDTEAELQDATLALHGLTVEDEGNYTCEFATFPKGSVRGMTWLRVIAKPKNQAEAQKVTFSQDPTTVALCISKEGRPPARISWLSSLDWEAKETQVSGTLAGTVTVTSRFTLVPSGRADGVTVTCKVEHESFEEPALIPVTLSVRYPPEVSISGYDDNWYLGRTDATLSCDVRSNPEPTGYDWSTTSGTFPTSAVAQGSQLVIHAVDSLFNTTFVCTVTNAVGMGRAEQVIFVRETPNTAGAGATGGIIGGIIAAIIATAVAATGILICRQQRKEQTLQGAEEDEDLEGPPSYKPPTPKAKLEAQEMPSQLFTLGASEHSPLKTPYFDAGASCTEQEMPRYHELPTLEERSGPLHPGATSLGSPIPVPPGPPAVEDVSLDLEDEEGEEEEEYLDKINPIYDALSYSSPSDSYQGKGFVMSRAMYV
The assay is described as follows: flow cytometry on whole U937 cells, screen of the 28 clones (Ctrl row = 0); Nectin-2 is named as the antigen on U937 cells only in the later examples.

This is an account of results in US20260265410A1 (UNIVERSITY OF FLORIDA RESEARCH FOUNDATION, published 2026).

T5 sequence (P23470 20-1445): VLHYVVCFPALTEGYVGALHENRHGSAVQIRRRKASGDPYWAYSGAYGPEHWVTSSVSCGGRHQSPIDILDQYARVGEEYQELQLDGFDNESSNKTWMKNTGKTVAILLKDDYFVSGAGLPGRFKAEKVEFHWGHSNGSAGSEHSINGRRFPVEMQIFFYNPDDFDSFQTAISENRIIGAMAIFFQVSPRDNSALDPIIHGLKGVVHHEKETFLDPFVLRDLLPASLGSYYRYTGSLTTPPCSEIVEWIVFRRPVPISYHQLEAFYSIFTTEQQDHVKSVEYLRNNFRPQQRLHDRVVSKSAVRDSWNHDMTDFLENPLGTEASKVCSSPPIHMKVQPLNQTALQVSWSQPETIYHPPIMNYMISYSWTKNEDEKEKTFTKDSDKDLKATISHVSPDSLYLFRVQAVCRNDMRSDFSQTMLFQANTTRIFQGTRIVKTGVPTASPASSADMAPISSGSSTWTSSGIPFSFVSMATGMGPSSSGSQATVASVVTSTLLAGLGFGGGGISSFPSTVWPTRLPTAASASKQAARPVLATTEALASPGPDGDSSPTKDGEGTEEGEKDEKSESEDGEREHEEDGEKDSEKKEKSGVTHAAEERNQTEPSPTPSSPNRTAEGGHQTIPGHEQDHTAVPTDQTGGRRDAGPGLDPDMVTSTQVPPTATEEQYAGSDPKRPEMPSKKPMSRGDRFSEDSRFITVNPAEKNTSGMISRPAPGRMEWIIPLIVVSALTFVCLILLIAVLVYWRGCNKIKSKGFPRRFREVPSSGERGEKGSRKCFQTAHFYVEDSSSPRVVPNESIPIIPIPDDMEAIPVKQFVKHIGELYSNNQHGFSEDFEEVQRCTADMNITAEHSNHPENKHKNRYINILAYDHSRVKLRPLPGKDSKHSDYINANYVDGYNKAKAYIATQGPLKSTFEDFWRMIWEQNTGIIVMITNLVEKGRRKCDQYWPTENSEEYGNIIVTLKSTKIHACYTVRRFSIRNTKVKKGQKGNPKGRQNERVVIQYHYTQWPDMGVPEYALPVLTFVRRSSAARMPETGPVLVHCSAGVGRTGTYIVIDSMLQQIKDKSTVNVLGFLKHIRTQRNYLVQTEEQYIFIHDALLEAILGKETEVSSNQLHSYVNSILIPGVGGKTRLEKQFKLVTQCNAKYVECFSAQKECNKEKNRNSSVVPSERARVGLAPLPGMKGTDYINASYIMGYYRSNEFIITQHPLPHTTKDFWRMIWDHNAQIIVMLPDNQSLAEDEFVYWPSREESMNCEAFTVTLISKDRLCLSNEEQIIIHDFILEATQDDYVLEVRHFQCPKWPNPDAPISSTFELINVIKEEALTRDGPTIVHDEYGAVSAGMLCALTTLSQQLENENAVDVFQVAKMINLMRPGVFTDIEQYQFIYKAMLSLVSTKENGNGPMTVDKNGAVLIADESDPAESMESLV

B1: Fab_130 (Fab, V domains shown)
VH: QEQQKESGGGLFKPTDTLTLTCTVSGFSLSSNAISWVRQAPGNGLEWIGAIDNSGSAYYATWAKGRSTITRATNLNTVTLKMTSVTAADTATYFCAREDVRADSIDLNMWGPGTLVTISS
VL: SFVLTQPASVQVNLGQTVSLTCTADTLSRSYASWYQQKPGQAPVLLIYRDTSRPSGVPDRFSGSSSGNTATLTISGAQAGDEADYYCATSDGSGSSYQFVFGGGTQLTVTG
notes: Chimeric rabbit/human Fab; also called P130; clone 130
Take B1: the binding result is “no binding” in assay [1], “binds” in assay [2], “no binding” in assay [3] and “no binding” in assay [4]. For the same molecule, the “flow cytometry binding value (the table prints no name or unit)” value was found to be 78.3 in assay [5] and 12.6 in assay [6].

B2: Fab_1955 (Fab, V domains shown)
VH: AQSLEESGGRLVTPGTPLTLTCTASGFSLYSYDMSWVRQAPGKGLEWIGLIDGGGNTYYASWAKGRFTISKTSSTTVDLKMTSLTTEDTATYFCARELWPAYSSGAFNIWGPGTLVTISS
VL: SFVLTQPASVQVNLGQTVSLTCTADTLSRRYASWYQQKPGQAPVLLIYRDTRRPSGVPDRFSGSSSGNTATLTISGAQAGDEADYYCVTTDGSGSSYLVVFGGGTQLTVTG
notes: Chimeric rabbit/human Fab; also called P1955; clone 1955
Turning to B2, the binding result in assay [1] is “no binding”; in assay [2], “binds”; in assay [3], “no binding”; in assay [4] it was “no binding”. For the same molecule, the “flow cytometry binding value (the table prints no name or unit)” value worked out at 91.3 in assay [5] and 12.9 in assay [6].

B3: Fab_2282 (Fab, V domains shown)
VH: QEQLKESGGRLVTPGTPLTLTCTASGFTISSYHMSWVRQAPGKGLEWIGVISASGGSTYYASWAKGRFTISKTSTTVDLKITSPTTEDTATYFCARESYGGYNLWGPGTLVTVSS
VL: SFVLTQPASVQVNLGQMVSLTCTADTLSRSYASWYQQKPGQAPVLLIYRDTSRPSGVPDRFSGSTSGNTATLTISGAQAGDEADYYCATDDNSGSSYQYVFGGGTQLTVTG
notes: Chimeric rabbit/human Fab; also called N2282; mAb_2282
Regarding B3, the binding result in assay [4] and in assay [7] was “no binding” in each case. Moreover, the “flow cytometry binding value (the table prints no name or unit)” value in assay [8] turned out to be 92.2.

B4: Fab_277 (Fab, V domains shown)
VH: AQSLEESGGRLVTPGTPLTLTCTASGFTLSSYHMSWVRQAPGKGLEWIGIISSGGSIYYASWAKGRFTISRTSTTVDLKMTSPTTEDTATYFCARYAAYSIGMDLWGPGTLVTVSS
VL: QFVLTQPASVQVNLGQMVSLTCTADTLSRSYASWYQQKPGQAPVLLIYRDTSRPSGVPDRFSGSTSGNTATLTISGAQAGDEADYYCATDDNSGSSYQYVFGGGTQLTVTG
notes: Chimeric rabbit/human Fab; also called N277
On to B4, for which the binding result in assay [4] and in assay [7] was “no binding” each time. Also, the “flow cytometry binding value (the table prints no name or unit)” value in assay [8] was 87.8.

B5: Fab_2430 (Fab, V domains shown)
VH: AQSLEESGGRLVTPGTPLTLTCTVSGIDLSSYHMNWVRQAPGKGLEWIGIIGASAGTYYARWAKGRFTISKTSTTVDLKITSPTTEDTATYFCARSGGSMQLNLWGPGTLVTISS
VL: SFVLTQPASVQVNLGQTVSLTCTADTLSRSYASWYQQKPGQAPVLLIYRDTSRPSGVPDRFSGSSSGNTATLTISGAQAGDEADYYCATDDSSGSSYQYVFGGGTQLTVTG
notes: Chimeric rabbit/human Fab; also called N2430
Regarding B5, the binding result in assay [4] and in assay [7] was “no binding” throughout. Moreover, the “flow cytometry binding value (the table prints no name or unit)” value in assay [8] came to 92.6.
